# T1: GST-DNMT1 fragment 4 (Homo sapiens, UniProt P26358 SEQ:1081-1408)
# T1 chain: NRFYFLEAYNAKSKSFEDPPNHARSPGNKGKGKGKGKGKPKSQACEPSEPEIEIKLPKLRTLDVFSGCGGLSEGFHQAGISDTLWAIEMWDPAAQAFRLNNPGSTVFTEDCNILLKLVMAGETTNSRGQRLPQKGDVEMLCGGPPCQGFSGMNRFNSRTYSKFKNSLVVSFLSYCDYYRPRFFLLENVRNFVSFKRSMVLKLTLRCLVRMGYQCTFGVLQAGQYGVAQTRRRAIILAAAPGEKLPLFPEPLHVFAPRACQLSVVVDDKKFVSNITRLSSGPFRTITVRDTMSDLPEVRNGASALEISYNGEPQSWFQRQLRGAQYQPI
# Key:
# DNMT1 full-length [1] = target: T2, DNMT1 full-length (Homo sapiens, UniProt P26358 SEQ:1-1616); assay: inhibition; competitive vs hemimethylated DNA; details: tags: baculovirus Sf9
# T2 sequence (P26358 whole entry): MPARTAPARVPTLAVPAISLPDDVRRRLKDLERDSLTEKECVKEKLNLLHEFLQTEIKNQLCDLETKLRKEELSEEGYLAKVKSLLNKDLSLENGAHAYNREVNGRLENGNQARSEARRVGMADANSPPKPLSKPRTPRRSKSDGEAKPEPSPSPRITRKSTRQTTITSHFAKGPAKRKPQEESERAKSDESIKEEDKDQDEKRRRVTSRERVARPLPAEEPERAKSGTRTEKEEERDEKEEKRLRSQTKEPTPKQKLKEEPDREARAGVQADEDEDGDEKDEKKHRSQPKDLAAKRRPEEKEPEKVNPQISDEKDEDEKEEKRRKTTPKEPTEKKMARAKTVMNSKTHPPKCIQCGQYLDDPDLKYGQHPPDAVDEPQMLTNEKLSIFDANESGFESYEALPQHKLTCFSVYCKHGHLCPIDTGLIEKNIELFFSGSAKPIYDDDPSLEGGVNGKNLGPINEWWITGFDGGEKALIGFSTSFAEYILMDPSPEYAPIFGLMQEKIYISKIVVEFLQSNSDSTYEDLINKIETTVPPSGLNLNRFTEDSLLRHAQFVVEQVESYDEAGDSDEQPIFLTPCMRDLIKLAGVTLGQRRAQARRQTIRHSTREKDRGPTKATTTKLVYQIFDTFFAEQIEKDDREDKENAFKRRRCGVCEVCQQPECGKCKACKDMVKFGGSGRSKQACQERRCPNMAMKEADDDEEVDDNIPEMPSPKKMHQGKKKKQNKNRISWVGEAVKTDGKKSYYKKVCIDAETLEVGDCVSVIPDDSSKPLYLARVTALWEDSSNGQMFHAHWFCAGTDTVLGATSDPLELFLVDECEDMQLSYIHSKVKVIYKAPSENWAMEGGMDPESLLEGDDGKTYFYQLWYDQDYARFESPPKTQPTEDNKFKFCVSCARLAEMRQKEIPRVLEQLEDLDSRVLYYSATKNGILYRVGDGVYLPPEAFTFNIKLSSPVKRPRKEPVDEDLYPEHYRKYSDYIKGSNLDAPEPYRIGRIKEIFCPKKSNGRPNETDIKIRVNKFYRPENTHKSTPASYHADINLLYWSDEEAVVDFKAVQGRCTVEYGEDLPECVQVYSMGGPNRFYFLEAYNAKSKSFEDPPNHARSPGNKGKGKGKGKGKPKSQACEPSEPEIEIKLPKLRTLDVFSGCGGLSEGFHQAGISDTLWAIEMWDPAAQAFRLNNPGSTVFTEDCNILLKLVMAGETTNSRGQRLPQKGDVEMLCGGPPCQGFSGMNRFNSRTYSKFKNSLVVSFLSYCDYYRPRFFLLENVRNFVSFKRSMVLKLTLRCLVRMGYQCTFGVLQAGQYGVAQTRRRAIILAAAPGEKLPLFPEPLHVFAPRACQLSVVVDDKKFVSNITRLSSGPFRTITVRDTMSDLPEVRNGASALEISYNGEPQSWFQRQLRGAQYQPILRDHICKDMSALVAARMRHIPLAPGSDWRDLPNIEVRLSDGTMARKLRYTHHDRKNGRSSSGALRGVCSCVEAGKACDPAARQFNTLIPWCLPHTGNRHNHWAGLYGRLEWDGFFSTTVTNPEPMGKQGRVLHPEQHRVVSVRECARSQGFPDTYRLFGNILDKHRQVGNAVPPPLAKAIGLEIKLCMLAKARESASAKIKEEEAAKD
# DNMT1 full-length [2] = target: T2, DNMT1 full-length; assay: inhibition; competitive vs hemimethylated DNA, 37 C; details: tags: baculovirus Sf9
# GST-DNMT1 fragment 4 [3] = target: T1, GST-DNMT1 fragment 4; assay: pulldown; most efficient binder of the four; details: tags: N-terminal GST (pGEX-5x-1); label: 5'-33P in pull-down; predicted to lack stem-loop
# Description: (§1) The resulting protein bands are shown in FIG. 1B; asterisks mark the positions of the GST-DNMT1 fusion proteins. GST-DNMT1 fragments were adjusted to the same protein concentration with 50% slurry sepharose beads. RNase inhibitor (New England Biolabs, Ipswich, Mass.) was applied to beads slurry at 40 U/mL immediate before use.
# (§2) The GST-DNMT1 fragments exposed to a series of small RNA molecules are depicted in FIG. 1D. The RNA oligos were labelled at the 5′ end with [γ-33P]ATP (PerkinElmer, Waltham, Mass.) using T4 polynucleotide kinase (New England Biolabs, Ipswich, Mass.), and purified with Illustra® ProbeQuant® G-50 Micro Columns (GE Healthcare Life Sciences, Piscataway, N.J.) per the manufacturer's instructions. The binding assay was performed in 50 μL reaction volume containing 20 μL of GST-DNMT1 fragment beads, 5 μL of 5 μM labelled RNA oligo, 5 μL of 10×DNMT1 reaction buffer (New England Biolabs, Ipswich, Mass.) and 20 μL of RNase-free water. After incubation at 37° C. for 10 minutes, beads were washed twice and suspended in 200 μL of PBS. The radioactivity associated with the beads was analyzed by liquid scintillation counting using a Tri-Carb® 2900TR (PerkinElmer, Waltham, Mass.). The amount of RNA oligo bound to beads were calculated by normalizing the scintillation counts of beads to that of 1 pmol labelled RNA oligo.
# DNMT1 full-length [4] = target: T2, DNMT1 full-length; assay: inhibition; mixed inhibition vs AdoMet; details: tags: baculovirus Sf9
# Procedure: For determination of the inhibition pattern and Kᵢ of asCEBPα-2 versus hemimethylated DNA substrate, 20 nM of the DNMT1 enzyme was incubated with 1.328, 0.884, 0.59, 0.394, 0.262, 0.1748 and 0.1168 μM (concentration calculated in terms of hemimethylated CpG) of the 36-bp length hemimethylated DNA substrate with the sequence of (CMeGG•CCG)₁₂ and 5.328 μM of [³H]AdoMet (PerkinElmer, Waltham, Mass.) in the presence of 0, 0.25, 0.5, 1, 2 and 4 μM folded asCEBPα-2 inhibitor RNA in 1×DNMT1 reaction buffer (New England Biolabs, Ipswich, Mass.). The reaction was performed at 37° C. for 30 minutes and DNMT1 enzyme was quenched by flash freezing the reaction mix in a dry ice-methanol bath. The reaction was split into two halves and spotted onto DE81 Whatman® 3658-325 ion exchange filter papers (GE Healthcare Life Sciences, Piscataway, N.J.). The Ki and velocity plots were calculated according to Bacolla, et al., J. Biol. Chem., 274:33011-33019 (1999).
# For determination of the inhibition patterns of various test RNAs and Kᵢ for asCEBPα-2 versus AdoMet, reactions were carried out at similar conditions as those described above. […] The nanomolar [³H]CH₃ transferred to hemimethylated DNA substrate was calculated in the same way as in the competitive experiment versus hemimethylated DNA substrate, except that the nanomolar concentration obtained was multiplied by an coefficient of 19.5. […]
# DNMT1 full-length [5] = target: T2, DNMT1 full-length; assay: inhibition; competitive vs hemimethylated DNA; details: tags: baculovirus Sf9; remark: listed apart in the source
# Procedure: Single point biochemistry assays were performed by incubating 10 nM of the DNMT1 enzyme with 1 μM of hemimethylated DNA and 5.328 μM of [³H]AdoMet in the presence of 5.28 μM of folded synthetic RNA oligos. The reaction was done for 15 minutes and radioactivity was counted. [³H]AdoMet incorporation, initial velocity curve and Kᵢ were calculated as described in Example 2.
# FIGS. 7C and 7D are representative plots of the inhibitory activity of 5p-5 and 3p-5 at increasing concentrations.
# GST-DNMT1 fragment 4 [6] = target: T1, GST-DNMT1 fragment 4; assay: pulldown; GST pull-down, 33P RNA, 37 C; lower than HPE variant; details: tags: N-terminal GST (pGEX-5x-1); label: 5'-33P in pull-down; stem-loop
# Description: as §1, §2
# GST-DNMT1 fragment 4 [7] = target: T1, GST-DNMT1 fragment 4; assay: pulldown; greater than asCEBPα-1; details: tags: N-terminal GST (pGEX-5x-1); label: 5'-33P in pull-down
# Description: as §1, §2
# GST-DNMT1 fragment 4 [8] = target: T1, GST-DNMT1 fragment 4; assay: pulldown; lower than HPE variant; details: tags: N-terminal GST (pGEX-5x-1); label: 5'-33P in pull-down; stem-loop
# Description: as §1, §2
# [9] = label: 5'-33P in pull-down, stem-loop
Binder,Ki (DNMT1 full-length [1]) [nM],also measured
UCGGAUCCGUCUGAGCUUGGCU (ssRNA) [miR-127-3p],269,
ACUCAAAAUGGGGGCGCUUUCC (ssRNA) [miR-373-5p],298,
UGAGAACUGAAUUCCAUGGGUU (ssRNA) [miR-146a-5p],1030,
UUAAUGCUAAUCGUGAUAGGGGU (ssRNA) [miR-155-5p],,Ki (DNMT1 full-length [2]): 27.9 nM
UCUUUGGUUAUCUAGCUGUAUGA (ssRNA) [miR-9-5p],493,
UAGCAGCACGUAAAUAUUGGCG (ssRNA) [miR-16-5p],463,
UAUUGCACUUGUCCCGGCCUGU (ssRNA) [miR-92a-3p],1650,
GACAGUGGAGAGGGGCGGAGCGG (ssRNA) [asCEBPα-2HPE],,"binding result (GST-DNMT1 fragment 4 [3]): binds; Ki (DNMT1 full-length [1]; label: 5'-33P in pull-down, predicted to lack stem-loop): 135 nM"
CAAAGUGCUUACAGUGCAGGUAG (ssRNA) [miR-17-5p],317,Ki (DNMT1 full-length [4]): 385 nM
AGGUUGGGAUCGGUUGCAAUGCU (ssRNA) [miR-92a-1-5p],476,
UCGUGAUAGGGGU (ssRNA) [5p-5],,Ki (DNMT1 full-length [5]): 124 nM
GUCCAGUUUUCCCAGGAAUCCCU (ssRNA) [miR-145-5p],2460,
UAAAGUGCUUAUAGUGCAGGUAG (ssRNA) [miR-20a-5p],560,
CCGGGACGCAGGCGGCGUCAGGC (ssRNA) [asCEBPα-1],,Ki (DNMT1 full-length [1]; [9]): 2000 nM; binding result (GST-DNMT1 fragment 4 [6]): binds
UGUGCAAAUCCAUGCAAAACUGA (ssRNA) [miR-19b-3p],3320,
UAGCUUAUCAGACUGAUGUUGA (ssRNA) [miR-21-5p],1290,
AUAAAGCUAGAUAACCGAAAGU (ssRNA) [miR-9-3p],1600,
CCGGGAAGCAGGCGGCGUCAGGC (ssRNA) [asCEBPα-1HPE],,Ki (DNMT1 full-length [1]; label: 5'-33P in pull-down): 918 nM; binding result (GST-DNMT1 fragment 4 [7]): binds
GCCAGUGGCGAGGGGCGGCGCGG (ssRNA) [asCEBPα-2],,Ki (DNMT1 full-length [1]; [9]): 434 nM; Ki (DNMT1 full-length [4]; [9]): 91.7 nM; binding result (GST-DNMT1 fragment 4 [8]): binds
